# Values joined by “and” are separate entries in the source; they are usually repeats but may differ in a detail not shown here. Identical values can stand only once. Like-named read-outs stand apart in the source and are kept apart here.
# Legend:
# FcγRIIA H = biological target: T1, FcγRIIA H (UniProt P12318 34-217, limits assumed); experiment: fold change of the Table 12 affinities (reference row)
# T1 construct: also called FcgRIIA H
# T1 sequence (looked up): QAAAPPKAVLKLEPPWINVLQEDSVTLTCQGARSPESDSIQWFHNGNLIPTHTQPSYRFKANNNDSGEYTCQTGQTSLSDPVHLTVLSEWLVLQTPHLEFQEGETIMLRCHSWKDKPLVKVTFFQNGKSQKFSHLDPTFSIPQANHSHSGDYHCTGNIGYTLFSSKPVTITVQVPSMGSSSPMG
# Method: (§1) Fcγ receptor binding assays were carried out as described (Shields, et al. (2001) J. Biol. Chem. 276:6591-6604) with minor modifications. High protein binding 96-well plates (Corning Costar) were coated with 100 μL per well of Fcγ receptor solutions in PBS at the following concentrations: 1 μg/mL for both FcγRI (R&D Systems) and FcγRIIa (Pichia pastoris produced), 2 μg/mL for FcγRIIb (P. pastoris produced), 0.8 μg/mL for FcγRIIIa-F158, and 0.4 μg/mL for FcγRIIIa-V158 (both P. pastoris produced). All Pichia pastoris produced receptors were expressed and purified as described (Li, et al. (2006) Nature Biotechnology 24:210-215). Monomeric antibody samples added to the FcγRI plate were serially diluted in assay diluent (1×PBS, 1% BSA, and 0.05% Tween20) and 100 μL, per well was added to the plate. Antibody samples prepared for the remaining receptors require a one hour dimerization step with half molar ratio of goat anti-human IgG F(ab′)2 F(ab′)2 that is conjugated with alkaline phosphatase for detection. These dimerized F(ab′)2/antibody complexes were also serially diluted and 100 μL per well were added to the remaining receptor plates and all plates were incubated for one hour at room temperature. FcγRI bound sample antibody was detected using the same goat anti-human IgG F(ab′)2 alkaline phosphatase conjugated F(ab′)2. Sample antibody binding was quantified by measuring excitation at 340 nm and emission at 465 nm after 18 hour incubation with SuperPhos, 4-MUP Fluorescence AP Substrate Detection System (Virolabs).
# [1] = biological target: T2, FcγRIIb (Pichia pastoris produced) (UniProt P31994 43-217, limits assumed); experiment: as above
# T2 construct: also called FcgRIIB; CD32B
# T2 sequence (looked up): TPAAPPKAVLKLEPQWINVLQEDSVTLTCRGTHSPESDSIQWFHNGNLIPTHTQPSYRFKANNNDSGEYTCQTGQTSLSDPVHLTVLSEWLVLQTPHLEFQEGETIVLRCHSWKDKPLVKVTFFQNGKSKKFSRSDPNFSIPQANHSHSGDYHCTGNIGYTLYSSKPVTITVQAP
# Method: as §1
# [2] = biological target: T3, FcγRIIIa-F158 (Pichia pastoris produced) (UniProt P08637 17-208, limits assumed); experiment: as above
# T3 construct: also called FcγRIIIA LF; FcgRIIIA LF
# T3 sequence (P08637 17-208 limits assumed): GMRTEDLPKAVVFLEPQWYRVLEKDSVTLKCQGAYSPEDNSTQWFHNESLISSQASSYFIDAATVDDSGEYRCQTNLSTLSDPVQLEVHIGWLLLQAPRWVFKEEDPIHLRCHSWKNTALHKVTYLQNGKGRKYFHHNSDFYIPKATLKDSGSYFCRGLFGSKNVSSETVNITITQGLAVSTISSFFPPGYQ
# Method: as §1
# [3] = biological target: T4, FcγRIIIa-V158 (Pichia pastoris produced) (UniProt P08637 17-208, limits assumed); experiment: as above
# T4 construct: also called FcγRIIIA LV; FcgRIIIA LV
# T4 sequence (P08637 17-208 F176V limits assumed): as the sequence (P08637 17-208 limits assumed) above, with F160V counted along it
# Method: as §1
# [4] = biological target: T5, FcγRIIa (Pichia pastoris produced) (UniProt P12318 34-217, limits assumed); experiment: ELISA-type plate assay, FcγR coated, antibody dimerized with AP-conjugated goat anti-human IgG F(ab')2, RFU readout
# T5 construct: also called CD32A
# T5 sequence (looked up): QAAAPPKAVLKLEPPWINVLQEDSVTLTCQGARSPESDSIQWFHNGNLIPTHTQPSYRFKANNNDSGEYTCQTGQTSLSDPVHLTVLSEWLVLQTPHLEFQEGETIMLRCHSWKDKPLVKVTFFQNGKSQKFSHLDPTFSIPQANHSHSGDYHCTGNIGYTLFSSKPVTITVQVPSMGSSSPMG
# Method: as §1
# [5] = biological target: T2, FcγRIIb (Pichia pastoris produced); experiment: as above
# Method: as §1
# [6] = biological target: T3, FcγRIIIa-F158 (Pichia pastoris produced); experiment: as above
# Method: as §1
# [7] = biological target: T2, FcγRIIb (Pichia pastoris produced); experiment: as above; remark: listed apart in the source
# Method: as §1
# [8] = biological target: T3, FcγRIIIa-F158 (Pichia pastoris produced); experiment: as above; remark: listed apart in the source
# Method: as §1
# wild-type human PCSK9 [9] = biological target: T6, wild-type human PCSK9 (human, UniProt Q8NBP7 31-692, limits assumed); experiment: SPR (Biacore T100), average KD of the two 1F11 runs
# T6 construct: also called PCSK9 antigen
# Method: (§2) The CM5 chip was immobilized on all flowcells with mouse anti-human IgG (Fc specific) according to the Biacore Human Antibody Capture Kit (Cat# BR-1008-39) to ˜7000RU. Anti-PCSK9 antibodies were captured on the chip to ˜500RU followed by analyte injections of wild-type human PCSK9 from 64.1 nM to 2.0 nM. Each flowcell was regenerated between each analyte injection with 3M MgCl for 40 seconds at 10 uL/min. Data was analyzed with Biacore T100 Evaluation Software using the 1:1 binding model using at least 5 point concentration range sensogram.
# wild-type human PCSK9 [10] = biological target: T6, wild-type human PCSK9; experiment: SPR (Biacore T100), antibody captured by anti-human Fc, PCSK9 as analyte, 1:1 model
# Method: as §2
# [11] = biological target: T3, FcγRIIIa-F158 (Pichia pastoris produced); experiment: ELISA on plate-coated receptor; antibody dimerized with anti-human IgG F(ab')2-AP; ELISA IC50, YGLY23258 (dimer), Table 6 experiment
# Method: as §1, with “These dimerized F(ab′)2/antibody complexes were also serially diluted and 100 μL per well were added to the remaining receptor plates and all plates were incubated for one hour at room temperature.” left out
# [12] = biological target: T4, FcγRIIIa-V158 (Pichia pastoris produced); experiment: as above
# Method: as §1, with “These dimerized F(ab′)2/antibody complexes were also serially diluted and 100 μL per well were added to the remaining receptor plates and all plates were incubated for one hour at room temperature.” left out
# [13] = biological target: T4, FcγRIIIa-V158 (Pichia pastoris produced); experiment: ELISA on plate-coated receptor; antibody dimerized with anti-human IgG F(ab')2-AP; ELISA IC50, YGLY23258 (dimer), Table 3 experiment
# Method: as §1, with “These dimerized F(ab′)2/antibody complexes were also serially diluted and 100 μL per well were added to the remaining receptor plates and all plates were incubated for one hour at room temperature.” left out
Binder,fold change in affinity vs 1F11 IgG1 GS5.0 (FcγRIIA H) [fold],fold change in affinity vs 1F11 IgG1 GS5.0 [1] [fold],fold change in affinity vs 1F11 IgG1 GS5.0 [2] [fold],fold change in affinity vs 1F11 IgG1 GS5.0 [3] [fold],EC50 (read off the curve) [4] [µg/mL],EC50 (read off the curve) [5] [µg/mL],EC50 (read off the curve) [6] [µg/mL],EC50 (read off the curve) [7] [µg/mL],EC50 (read off the curve) [8] [µg/mL],Kd (wild-type human PCSK9 [9]) [nM],Kd (wild-type human PCSK9 [10]),koff (wild-type human PCSK9 [10]),kon (wild-type human PCSK9 [10]),IC50 [11] [µg/mL],IC50 [12] [µg/mL],IC50 [13] [µg/mL]
"1F11 wildtype (parent) humanized anti-PCSK9 monoclonal IgG1 antibody (antibody, Produced in glycoengineered Pichia pastoris GFI5.0 (strain YGLY21351); also called 1F11 IgG1 GS5.0; YGLY21351) heavy: not shown light: DIQMTQSPSSLSASVGDRVTITCKASQNVGTNVVWYQQKPGKAPKALIHSASYRYSGVPSRFSGSGSGTDFTLTISSLQPEDFATYYCQQYKTYPYTFGQGTKVEIKRTVAAPSVFIFPPSDEQLKSGTASVVCLLNNFYPREAKVQWKVDNALQSGNSQESVTEQDSKDSTYSLSSTLTLSKADYEKHKVYACEVTHQGLSSPVTKSFNRGEC",1,1,1,1,~0.03,~0.2,~0.02,~0.4,~0.02,2.8,3.29 nM and 2.3 nM,0.000499 s⁻¹ and 0.000407 s⁻¹,152000 M⁻¹ s⁻¹ and 177000 M⁻¹ s⁻¹,–,–,–
"1F11 IgG1 F243A/V264A double mutein anti-PCSK9 antibody (antibody, sialylated N-glycans; also called 1F11 DM; YGLY23258) heavy: not shown light: DIQMTQSPSSLSASVGDRVTITCKASQNVGTNVVWYQQKPGKAPKALIHSASYRYSGVPSRFSGSGSGTDFTLTISSLQPEDFATYYCQQYKTYPYTFGQGTKVEIKRTVAAPSVFIFPPSDEQLKSGTASVVCLLNNFYPREAKVQWKVDNALQSGNSQESVTEQDSKDSTYSLSSTLTLSKADYEKHKVYACEVTHQGLSSPVTKSFNRGEC",–,–,–,–,–,–,–,–,–,–,–,–,–,1.17,0.16,0.09

# Reference: patent US20140086916A1 (Merck Sharp & Dohme, published 2014)
